What all share (conditions): 10 mM Na2HPO4 pH 7.3, 22 °C
Substrate in data set [1]: CC(=CC=C(O)C(=O)O)C(=O)O
The experiment in a line: UV steady-state kinetics, enol-keto tautomerization. The class given is biochemical, Burkholderia lata.

Substrate in data set [2]: C=CC=C(O)C(=O)O
The data set is described as above. The class given is biochemical, Burkholderia lata.

Substrate in data set [3]: O=C(O)C(O)=Cc1ccccc1
Nature of the data set: purified protein.

Substrate in data set [4]: O=C(O)C=CC=C(O)C(=O)O
Nature of the data set: purified protein.

B1: fused 4-OT (fused 4-oxalocrotonate tautomerase) (Burkholderia lata) (protein)
chain: PTLEVFLPAGHDDARKAELIARLTGATVDSIGAPIESVRVLLTELPATHIGLGGRSAADGAPPSLPVIVAILIAGRTDEQKRALIAALSETSASVLDAPLQATRVMIKDIPNTDFGIGGQTARALGR
Regarding B1, in data set [1], the Km came out at 147 ± 9 µM, the kcat was 72 ± 2 s⁻¹ and the catalytic efficiency (kcat/Km) was 490000 M⁻¹ s⁻¹. In data set [2], the Km amounted to 1330 ± 140 µM, the catalytic constant (kcat) was determined as 170 ± 12 s⁻¹ and the specificity constant (kcat/Km) was determined as 130000 M⁻¹ s⁻¹.

B2: unfused 4-OT (Burkholderia lata) (protein)
chain 1: PTLEVFLPAGHDDARKAELIARLTGATVDSIGAPIESVRVLLTELPATHIGLGGRSAADGAPPSL
chain 2: PVIVAILIAGRTDEQKRALIAALSETSASVLDAPLQATRVMIKDIPNTDFGIGGQTARALGR
For the protein B2, in the data set “purified protein [3]”, the Km amounted to 346 ± 28 µM, the kcat came out at 19.3 ± 0.7 s⁻¹ and the catalytic efficiency (kcat/Km) came to 56000 M⁻¹ s⁻¹. In the data set “purified protein [4]”, the Km amounted to 148 ± 18 µM, the turnover number (kcat) is 105 ± 6 s⁻¹ and the catalytic efficiency (kcat/Km) was 710000 M⁻¹ s⁻¹.

One may read the Km as the concentration of substrate that gives half-maximal velocity. As a reminder, the kcat is the maximal rate divided by the concentration of active sites. One may read the kcat/Km as the second-order rate constant that governs catalysis at low substrate concentration.

The values above are taken from publication PMC6948721.
